T1: Human CLDN6 (on 293T-CLDN6 cells) (human, UniProt P56747 1-220)
T1 construct: In the killing assay it was also endogenous on OVCAR3 and OV90 cells; also called Claudin 6
T1 sequence: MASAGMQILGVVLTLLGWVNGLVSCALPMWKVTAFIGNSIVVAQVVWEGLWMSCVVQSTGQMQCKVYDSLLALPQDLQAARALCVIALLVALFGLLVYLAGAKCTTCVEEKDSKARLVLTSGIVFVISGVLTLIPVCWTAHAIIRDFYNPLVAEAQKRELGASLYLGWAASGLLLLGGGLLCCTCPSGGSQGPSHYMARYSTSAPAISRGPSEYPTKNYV

T2: Human CLDN9 (on 293T-CLDN9 cells) (human, UniProt O95484 1-217)
T2 construct: also called Claudin 9
T2 sequence: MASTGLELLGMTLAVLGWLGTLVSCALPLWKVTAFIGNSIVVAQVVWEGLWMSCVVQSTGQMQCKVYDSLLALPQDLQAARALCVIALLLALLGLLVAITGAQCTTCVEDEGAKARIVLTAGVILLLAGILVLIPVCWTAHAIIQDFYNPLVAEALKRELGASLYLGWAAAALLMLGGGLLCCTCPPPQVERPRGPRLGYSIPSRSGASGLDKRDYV

T3: Human CLDN4 (on 293T-CLDN4 cells) (human, UniProt O14493 1-209)
T3 construct: also called Claudin 4
T3 sequence: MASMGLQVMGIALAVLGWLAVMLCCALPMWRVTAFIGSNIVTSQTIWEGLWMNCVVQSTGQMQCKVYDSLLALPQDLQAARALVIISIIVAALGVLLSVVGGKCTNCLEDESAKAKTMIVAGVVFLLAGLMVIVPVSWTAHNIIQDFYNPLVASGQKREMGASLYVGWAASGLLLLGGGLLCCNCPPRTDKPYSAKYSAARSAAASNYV


Experiments:
[1] = molecular target: T1, Human CLDN6 (on 293T-CLDN6 cells); test: flow cytometry on 293T-CLDN6 cells
[2] = molecular target: T2, Human CLDN9 (on 293T-CLDN9 cells); test: flow cytometry on 293T-CLDN9 cells
Description: (§1) After centrifugation, the supernatant was discarded, and the cells were washed with PBS and incubated with Goat-anti-Mouse FITC at 4° C. After centrifugation, the supernatant was discarded, and the cells were washed and detected by flow cytometry. FlowJo v.X.0.7 was used for statistics and GraphPad Prism 8.0 was used for plotting.

[3] = molecular target: T3, Human CLDN4 (on 293T-CLDN4 cells); test: flow cytometry on 293T-CLDN4 cells
Description: as §1

[4] = molecular target: T1, Human CLDN6 (on 293T-CLDN6 cells); test: flow cytometry EC50 on 293T-CLDN6 cells, against antibody H1
Description: (§2) The heavy chain variable region of antibody P1 from Example 3 was combined with the light chain variable regions of antibodies P2 and P3 by using molecular cloning, respectively, so as to obtain antibodies M1 and M2. After being prokaryotically expressed and puried, purified single chain antibodies (scFv) were obtained. […] Data were analyzed using FlowJo to calculate mean fluorescence intensity (MFI).

[5] = molecular target: T3, Human CLDN4 (on 293T-CLDN4 cells); test: flow cytometry (MFI) on 293T-CLDN4 cells
Description: as §2

[6] = molecular target: T2, Human CLDN9 (on 293T-CLDN9 cells); test: flow cytometry (MFI) on 293T-CLDN9 cells
Description: as §2

Row | Binder | EC50 [1] [nM] | binding result [2] | binding result [3] | fold improvement in affinity compared with antibody H1 [4] [fold] | binding result [5] | binding result [6]
1 | Antibody P2 (scFv) (scFv, Prokaryotically expressed single chain antibody) scFv: EVQLVQSGAEVKKPGASVKVSCKASGYTFTGYYMNWVRQAPGQGLEWMGEINPATGSTTYNQKFKARVTITRDTSTSTAYMELSSLRSEDTAVYYCARRDYYYGSGFYAMDYWGQGTLVTVSSGGGGSGGGGSGGGGSDIQMTQSPSSLSASVGDRVTITCQASQSVSNNLNWYQQKPGKAPKLLIYGASKLEDGVPSRFSGSGSGTDFTFTISSLQPEDFATYYCLQHRYMWTFGQGTKVEIK | 144 | – | – | – | – | –
2 | Antibody P1 (scFv) (scFv, Prokaryotically expressed single chain antibody) scFv: EVQLVQSGAEVKKPGASVKVSCKASGYTFTGYYMNWVRQAPGQGLEWMGEINPATGSTTYNQKFKARVTITRDTSTSTAYMELSSLRSEDTAVYYCARRDYYLGSNSYALDYWGQGTLVTVSSGGGGSGGGGSGGGGSDIQMTQSPSSLSASVGDRVTITCQASQSVSNNLNWYQQKPGKAPKLLIYGASKLEDGVPSRFSGSGSGTDFTFTISSLQPEDFATYYCLQHRYLWTFGQGTKVEIK | 62.7 | – | – | – | – | –
3 | antibody M1 (scFv) (scFv, V domains shown, Tested as a prokaryotically expressed single chain antibody (scFv)) VH: EVQLVQSGAEVKKPGASVKVSCKASGYTFTGYYMNWVRQAPGQGLEWMGEINPATGSTTYNQKFKARVTITRDTSTSTAYMELSSLRSEDTAVYYCARRDYYLGSNSYALDYWGQGTLVTVSS VL: DIQMTQSPSSLSASVGDRVTITCQASQSVSNNLNWYQQKPGKAPKLLIYGASKLEDGVPSRFSGSGSGTDFTFTISSLQPEDFATYYCLQHRYMWTFGQGTKVEIK | 23 | – | – | ~20 | no binding (tested: 5 µg/mL) | no binding (tested: 5 µg/mL)

Other lines, results leading:

Row | EC50 [1] [nM] | binding result [2] | binding result [3] | fold improvement in affinity compared with antibody H1 [4] [fold] | binding result [5] | binding result [6] | Binder
4 | 555 | – | – | – | – | – | Antibody P3 (scFv) (scFv, Prokaryotically expressed single chain antibody) scFv: EVQLVQSGAEVKKPGASVKVSCKASGYTFTGYYMNWVRQAPGQGLEWMGEINPATGSTTYNQKFKARVTITRDTSTSTAYMELSSLRSEDTAVYYCARRDYYYGSGFYAMDYWGQGTLVTVSSGGGGSGGGGSGGGGSDIQMTQSPSSLSASVGDRVTITCQASQSVSNNLNWYQQKPGKAPKLLIYGASKLEDGVPSRFSGSGSGTDFTFTISSLQPEDFATYYCQQHRFMWTFGQGTKVEIK
5 | 475 | no binding (tested: 10 µg/mL) | no binding (tested: 10 µg/mL) | – | – | – | humanized antibody H1 (scFv-huFc) (Fc fusion, Tested as scFv-huFc; not shown: human Fc (huFc)) scFv: EVQLVQSGAEVKKPGASVKVSCKASGYTFTGYYMNWVRQAPGQGLEWMGEINPATGSTTYNQKFKARVTITRDTSTSTAYMELSSLRSEDTAVYYCARRDYYYGSGFYAMDYWGQGTLVTVSSGGGGSGGGGSGGGGSDIQMTQSPSSLSASVGDRVTITCQASQSVSNNLNWYQQKPGKAPKLLIYGASKLEDGVPSRFSGSGSGTDFTFTISSLQPEDFATYYCLQHRYLWTFGQGTKVEIK
6 | 183 | – | – | – | – | – | Antibody P4 (scFv) (scFv, Prokaryotically expressed single chain antibody) scFv: EVQLVQSGAEVKKPGASVKVSCKASGYTFTGYYMNWVRQAPGQGLEWMGEINPATGSTTYNQKFKARVTITRDTSTSTAYMELSSLRSEDTAVYYCARRDYYYGSGFYAMDYWGQGTLVTVSSGGGGSGGGGSGGGGSDIQMTQSPSSLSASVGDRVTITCQASQSVSNNLNWYQQKPGKAPKLLIYGASKLEDGVPSRFSGSGSGTDFTFTISSLQPEDFATYYCQQHRYMWTFGQGTKVEIK
7 | 24.7 | – | – | ~20 | no binding (tested: 5 µg/mL) | no binding (tested: 5 µg/mL) | antibody M2 (scFv) (scFv, V domains shown, Tested as a prokaryotically expressed single chain antibody (scFv)) VH: EVQLVQSGAEVKKPGASVKVSCKASGYTFTGYYMNWVRQAPGQGLEWMGEINPATGSTTYNQKFKARVTITRDTSTSTAYMELSSLRSEDTAVYYCARRDYYLGSNSYALDYWGQGTLVTVSS VL: DIQMTQSPSSLSASVGDRVTITCQASQSVSNNLNWYQQKPGKAPKLLIYGASKLEDGVPSRFSGSGSGTDFTFTISSLQPEDFATYYCQQHRFMWTFGQGTKVEIK
